Measured values taken from patent publication US12442042B2, “Epigenomic profiling reveals the somatic promoter landscape of primary gastric adenocarcinoma” (AGENCY FOR SCIENCE, TECHNOLOGY AND RESEARCH, priority 2016, dated 2025).

Experiments:
SNU1967 cells [1] = assay: Cell proliferation assay (WST-8); format: cell-based; details: 24 to 120 hours post-transfection
Method: (§1) 3×10^3 GES1, SNU1967 and AGS cells were plated into 96-well plates in media with 10% fetal bovine serum and left overnight to attach. The next day (Day 0), cells were transiently transfected with wild-type and variant RASA3 constructs using Lipofectamine 3000 (Thermo Scientific). The amount of the constructs was 40 ng/well for AGS and 100 ng/well for GES1 and SNU1967 cells. Cell proliferation was measured by the WST-8 assay (Cell Counting Kit-8, Dojindo) from 24 to 120 hours post-transfection. 10 μL of WST-8 solution was added per well and the absorbance reading was measured at 450 nm after 2 hours of incubation in a humidified incubator.

GES1 cells [2] = assay: Cell proliferation assay (WST-8); format: cell-based; details: 24 to 120 hours post-transfection
Method: as §1

AGS cells [3] = assay: Cell proliferation assay (WST-8); format: cell-based; details: 24 to 120 hours post-transfection
Method: as §1

SNU1967 cells [4] = assay: Matrigel invasion assay; format: cell-based; details: SNU1967 cells transfected with isoform
Method: (§2) To determine cell migratory capacities, RASA3 wild type and variant transfected AGS and GES1, SNU1967 and AGS, and siRNA treated NCC24 cells were tested using Corning Costar 6.5 mm Transwell with 8.0 μm Pore Polycarbonate Membrane Inserts (3422, Corning, NY, USA). 2.5×10^4 AGS cells and 2×10^4 GES1 cells, 3×10^4 SNU1967 cells and 5×10^4 NCC24 cells were suspended in 0.1 ml serum-free RPMI medium and added to the top of the Transwell insert. 0.6 ml RPMI containing 10% FBS was added into the bottom well as a chemoattractant. After incubation for 24 h at 37° C. in a 5% CO2 incubator, cells were fixed with 3.7% formaldehyde and permeabilized with 100% methanol. Non-migrated cells were scraped off with cotton swabs from the upper surface of the membrane. Migrated cells were stained with 0.5% crystal violet. The number of migrated cells were represented as the total area of migrated cells vs the area of transwell membrane calculated using ImageJ software. For cell invasion assays, the above Transwell inserts were coated with 0.1 ml (300 μg/mL) Corning Matrigel matrix (354234, Corning, NY, USA) for 2 to 4 h at 37° C. before use. All subsequent steps were identical to the migration assay protocol.

GES1 cells [5] = assay: Matrigel invasion assay; format: cell-based; details: GES1 cells transfected with isoform
Method: as §2

RAS = assay: RAS-GTP assay (Active RAS pull-down) in GES1 cells; format: cell-based; details: vs empty vector or RASA3 SomT
Method: GES1 cells were transfected with either RASA3 CanT, RASA3 SomT or empty vector for 48 hours. Cells were harvested for protein in FBS containing media or subjected to over-night serum starvation followed by serum stimulation for 30 minutes prior to harvest. Proteins were extracted using ice-cold lysis buffer (Active RAS Pull-down and Detection Kit) containing protease inhibitor cocktail (Nacalai Tesque). Active RAS fraction was obtained using the Active RAS Pull-down and Detection Kit (Thermo Fisher Scientific) according to manufacturer's instructions. Total RAS was measured in corresponding whole cell protein lysates. β-actin was used as a loading control. Protein concentrations were determined using the Pierce BCA protein assay (Thermo Scientific). SDS sample buffer was added to the lysates and boiled at 100° C. for 5 minutes. Samples were loaded in each well of a 4-15% Mini-Protean TGX gel (Biorad) and transferred to a PVDF membrane using a semi-dry blotting system (Biorad). Membranes were probed with anti-RAS (1 in 200 dilution, supplied in Active RAS Pull-down and Detection Kit), or B-actin (1 in 5000 dilution, Sigma A5316) in 5% milk-PBST at 4° C. over-night. Secondary anti-mouse antibody (LNA931, Amersham) was used at a dilution of 1 in 2000 for 1 hour at room temperature. […]

HLA-A*02:06 T cells = assay: IFN-γ assay: primed T cells co-cultured with AGS cells expressing RASA3 isoforms (ELISA); format: cell-based, human; details: T cells primed with the isoform, co-cultured with AGS cells expressing the same isoform, two days
Method: To test the immunogenicity of the RASA3 WT and Variant protein sequences, CD14+ monocytes were isolated from a HLA-A*02:06 donor by positive selection using magnetic beads (Miltenyi, Germany). Dendritic cells were generated by GM-CSF (1000 IU/ml) and IL-4 (400 IU/ml), and further matured by TNF (10 ng/ml), IL-1b (10 ng/ml), IL-6 (10 ng/ml) (Miltenyi, Germany) and PGE2 (1 μg/ml) (Stemcell Technologies, Canada) for 24 hours. The DCs were then primed with AGS cell lysates expressing WT RASA3 or Variant RASA3 for 24 hours, before being co-cultured with T cells from the same donor at the ratio of 1:5. After 5 days of co-culture with DC, T cells were isolated by positive selection using CD3 magnetic beads (Miltenyi, Germany) and co-cultured with AGS cells expressing either WT or Variant RASA3 at the ratio of 20:1 for two days. Supernatants were harvested and IFN-γ release was measured by ELISA (R&D, USA).

GES1 cells [6] = assay: Transwell migration assay; format: cell-based; details: GES1 cells transfected with isoform, 24 h
Method: as §2

AGS cells [7] = assay: Transwell migration assay; format: cell-based; details: KRAS mutated AGS cells transfected with isoform, 24 h
Method: as §2

B1: RASA3 CanT: canonical full-length RASA3 protein isoform, transfected construct (protein, UniProt Q14644 1-834, looked up)
chain: MAVEDEGLRVFQSVKIKIGEAKNLPSYPGPSKMRDCYCTVNLDQEEVFRTKIVEKSLCPFYGEDFYCEIPRSFRHLSFYIFDRDVFRRDSIIGKVAIQKEDLQKYHNRDTWFQLQHVDADSEVQGKVHLELRLSEVITDTGVVCHKLATRIVECQGLPIVNGQCDPYATVTLAGPFRSEAKKTKVKRKTNNPQFDEVFYFEVTRPCSYSKKSHFDFEEEDVDKLEIRVDLWNASNLKFGDEFLGELRIPLKVLRQSSSYEAWYFLQPRDNGSKSLKPDDLGSLRLNVVYTEDHVFSSDYYSPLRDLLLKSADVEPVSASAAHILGEVCREKQEAAVPLVRLFLHYGRVVPFISAIASAEVKRTQDPNTIFRGNSLASKCIDETMKLAGMHYLHVTLKPAIEEICQSHKPCEIDPVKLKDGENLENNMENLRQYVDRVFHAITESGVSCPTVMCDIFFSLREAAAKRFQDDPDVRYTAVSSFIFLRFFAPAILSPNLFQLTPHHTDPQTSRTLTLISKTVQTLGSLSKSKSASFKESYMATFYEFFNEQKYADAVKNFLDLISSSGRRDPKSVEQPIVLKEGFMIKRAQGRKRFGMKNFKKRWFRLTNHEFTYHKSKGDQPLYSIPIENILAVEKLEEESFKMKNMFQVIQPERALYIQANNCVEAKDWIDILTKVSQCNQKRLTVYHPSAYLSGHWLCCRAPSDSAPGCSPCTGGLPANIQLDIDGDRETERIYSLFNLYMSKLEKMQEACGSKSVYDGPEQEEYSTFVIDDPQETYKTLKQVIAGVGALEQEHAQYKRDKFKKTKYGSQEHPIGDKSFQNYIRQQSETSTHSI
modifications: full-length
notes: canonical full-length RASA3 protein isoform, transfected construct
cellular proliferation rate (SNU1967 cells [1]): did not alter
cellular proliferation rate (GES1 cells [2]): did not alter
cellular proliferation rate (AGS cells [3]): did not alter
invasion (SNU1967 cells [4]): significantly suppressed
invasion (GES1 cells [5]): did not
levels of active GTP-bound RAS (RAS): lower levels of active GTP-bound RAS
IFNγ release from primed T cells (HLA-A*02:06 T cells): significantly more
migration (GES1 cells [6]): did not
migration (AGS cells [7]): potently suppressed
migration (AGS cells [7]; listed as RASA3 WT): more potent migration suppression
